This assay concerns the target T1, Escherichia coli sulfite reductase hemoprotein (Escherichia coli K-12, UniProt P17846 1-570).
T1 sequence: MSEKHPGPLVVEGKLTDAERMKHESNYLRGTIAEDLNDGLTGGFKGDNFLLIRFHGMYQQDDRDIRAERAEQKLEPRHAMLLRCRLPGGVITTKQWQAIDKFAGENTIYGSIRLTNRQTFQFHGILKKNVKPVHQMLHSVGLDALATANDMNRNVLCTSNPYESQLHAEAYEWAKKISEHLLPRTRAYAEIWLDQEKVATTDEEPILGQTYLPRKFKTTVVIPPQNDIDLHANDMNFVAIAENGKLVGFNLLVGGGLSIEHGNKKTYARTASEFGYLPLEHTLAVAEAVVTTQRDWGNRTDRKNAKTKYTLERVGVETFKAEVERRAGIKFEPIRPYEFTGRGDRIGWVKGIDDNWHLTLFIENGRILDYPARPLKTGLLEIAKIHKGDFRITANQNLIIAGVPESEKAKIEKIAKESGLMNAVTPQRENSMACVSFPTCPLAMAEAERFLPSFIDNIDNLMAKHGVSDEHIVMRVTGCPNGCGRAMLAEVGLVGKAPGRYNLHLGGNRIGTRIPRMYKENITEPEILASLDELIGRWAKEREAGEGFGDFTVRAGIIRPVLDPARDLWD
In words: cryo-EM structure.

B1: SiRFP-60X: sulfite reductase flavoprotein amino acids 52-599 (C162T/C552S/E121C/N556C) (domain or fragment, Escherichia coli K-12, UniProt P38038 52-599, looked up)
chain: AATPAPAAEMPGITIISASQTGNARRVAEALRDDLLAAKLNVKLVNAGDYKFKQIASEKLLIVVTSTQGCGEPPEEAVALHKFLFSKKAPKLENTAFAVFSLGDSSYEFFTQSGKDFDSKLAELGGERLLDRVDADVEYQAAASEWRARVVDALKSRAPVAAPSQSVATGAVNEIHTSPYSKDAPLVASLSVNQKITGRNSEKDVRHIEIDLGDSGMRYQPGDALGVWYQNDPALVKELVELLWLKGDEPVTVEGKTLPLNEALQWHFELTVNTANIVENYATLTRSETLLPLVGDKAKLQHYAATTPIVDMVRFSPAQLDAEALINLLRPLTPRLYSIASSQAEVENEVHVTVGVVRYDVEGRARAGGASSFLADRVEEEGEVRVFIEHNDNFRLPANPETPVIMIGPGTGIAPFRAFMQQRAADEAPGKNWLFFGNPHFTEDFLYQVEWQRYVKDGVLTRIDLAWSRDQKEKVYVQDKLREQGAELWRWINDGAHIYVSGDACRMAKDVEQALLEVIAEFGGMDTEAADEFLSELRVERRYQRDVY
Regarding B1, the binding result is “binds”.

B2: SiRFP-60Δ: sulfite reductase flavoprotein amino acids 52-599/Δ212-217 (Δ-AAPSQS) (domain or fragment, Escherichia coli K-12, UniProt P38038 52-599, looked up)
chain: AATPAPAAEMPGITIISASQTGNARRVAEALRDDLLAAKLNVKLVNAGDYKFKQIASEKLLIVVTSTQGEGEPPEEAVALHKFLFSKKAPKLENTAFAVFSLGDSSYEFFCQSGKDFDSKLAELGGERLLDRVDADVEYQAAASEWRARVVDALKSRAPVVATGAVNEIHTSPYSKDAPLVASLSVNQKITGRNSEKDVRHIEIDLGDSGMRYQPGDALGVWYQNDPALVKELVELLWLKGDEPVTVEGKTLPLNEALQWHFELTVNTANIVENYATLTRSETLLPLVGDKAKLQHYAATTPIVDMVRFSPAQLDAEALINLLRPLTPRLYSIASSQAEVENEVHVTVGVVRYDVEGRARAGGASSFLADRVEEEGEVRVFIEHNDNFRLPANPETPVIMIGPGTGIAPFRAFMQQRAADEAPGKNWLFFGNPHFTEDFLYQVEWQRYVKDGVLTRIDLAWSRDQKEKVYVQDKLREQGAELWRWINDGAHIYVCGDANRMAKDVEQALLEVIAEFGGMDTEAADEFLSELRVERRYQRDVY
For B2, the binding result is listed as “binds”.

B3: SiRFP-43: sulfite reductase flavoprotein amino acids 237-599 (domain or fragment, Escherichia coli K-12, UniProt P38038 237-599, looked up)
chain: LVASLSVNQKITGRNSEKDVRHIEIDLGDSGMRYQPGDALGVWYQNDPALVKELVELLWLKGDEPVTVEGKTLPLNEALQWHFELTVNTANIVENYATLTRSETLLPLVGDKAKLQHYAATTPIVDMVRFSPAQLDAEALINLLRPLTPRLYSIASSQAEVENEVHVTVGVVRYDVEGRARAGGASSFLADRVEEEGEVRVFIEHNDNFRLPANPETPVIMIGPGTGIAPFRAFMQQRAADEAPGKNWLFFGNPHFTEDFLYQVEWQRYVKDGVLTRIDLAWSRDQKEKVYVQDKLREQGAELWRWINDGAHIYVCGDANRMAKDVEQALLEVIAEFGGMDTEAADEFLSELRVERRYQRDVY
On to B3, for which the binding result is “binds”.

Source of the values: publication PMC11195156 (bioRxiv, 2025).
